Numbering of substitutions follows the chain as printed.
T1: hIL-4Rα on cells (human, UniProt P24394 26-825)
T1 sequence: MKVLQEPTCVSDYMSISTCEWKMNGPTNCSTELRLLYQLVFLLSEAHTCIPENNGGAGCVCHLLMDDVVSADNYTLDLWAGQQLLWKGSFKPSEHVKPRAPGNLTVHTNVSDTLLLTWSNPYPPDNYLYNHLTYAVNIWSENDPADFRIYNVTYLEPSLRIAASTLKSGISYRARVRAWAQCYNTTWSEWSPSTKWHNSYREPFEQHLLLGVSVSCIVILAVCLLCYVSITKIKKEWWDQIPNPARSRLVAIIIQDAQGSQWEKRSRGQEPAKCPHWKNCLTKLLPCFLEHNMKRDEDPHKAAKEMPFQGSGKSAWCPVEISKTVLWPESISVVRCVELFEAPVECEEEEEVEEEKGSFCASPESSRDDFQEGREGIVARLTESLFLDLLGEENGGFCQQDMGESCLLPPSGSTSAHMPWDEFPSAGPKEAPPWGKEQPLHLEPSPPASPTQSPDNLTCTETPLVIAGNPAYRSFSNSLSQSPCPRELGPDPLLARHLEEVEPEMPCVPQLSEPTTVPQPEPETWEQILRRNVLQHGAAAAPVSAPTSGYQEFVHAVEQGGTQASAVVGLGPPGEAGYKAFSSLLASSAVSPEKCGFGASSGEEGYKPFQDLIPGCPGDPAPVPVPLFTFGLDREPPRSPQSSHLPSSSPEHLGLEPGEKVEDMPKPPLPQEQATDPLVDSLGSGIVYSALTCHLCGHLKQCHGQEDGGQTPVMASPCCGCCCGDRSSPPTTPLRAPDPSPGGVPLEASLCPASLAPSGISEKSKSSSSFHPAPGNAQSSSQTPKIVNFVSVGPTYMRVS

T2: human IL-4Rα (human, UniProt P24394 26-232)
T2 construct: also called Hu IL-4Rα; hIL-4Rα
T2 sequence: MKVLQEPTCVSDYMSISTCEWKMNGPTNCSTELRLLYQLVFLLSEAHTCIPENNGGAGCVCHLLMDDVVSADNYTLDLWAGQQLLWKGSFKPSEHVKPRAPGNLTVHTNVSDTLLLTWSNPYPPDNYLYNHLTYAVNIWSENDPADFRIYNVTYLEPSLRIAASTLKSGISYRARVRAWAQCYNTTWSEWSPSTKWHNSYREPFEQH

T3: cynomolgus monkey IL-4Rα (cynomolgus monkey, UniProt P24394 26-231 (human entry), limits assumed)
T3 construct: also called Cyno IL-4Rα; cyIL-4Rα
T3 chain: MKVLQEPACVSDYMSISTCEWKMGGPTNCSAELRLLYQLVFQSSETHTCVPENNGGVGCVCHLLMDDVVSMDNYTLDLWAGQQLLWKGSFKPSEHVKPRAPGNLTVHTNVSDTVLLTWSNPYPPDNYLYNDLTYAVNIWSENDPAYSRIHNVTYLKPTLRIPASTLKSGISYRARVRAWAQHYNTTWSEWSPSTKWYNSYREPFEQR

B1: Construct 24 (mAb432) (antibody, IgG4, V domains shown)
VH: EVQLVESGGGLEQPGGSLRLSCAGSGFTFRDFAMTWVRQAPGKGLEWVSSISGSGGNIYYADSVKGRFTISRDNSKNTLYLQMNSLRAEDTAVYYCAKDRLSIAVRPRYYGLDVWGQGTTVTVSS
VL: DIVMTQSPLSLPVTPGEPASISCTASQSLLYSIGKNYVDWYLQKSGQSPQLLIYLGNNRATGVPDRFSGSGSGTDFTLKISRVEAEDVGFYYCMQSLTSPYTFGQGTKLEIK
notes: VH/VL only
B2: Construct 38 (mAb471) with IgG1 YTE LALA heavy chain constant region (antibody, V domains shown)
VH: B1 VH with I103V, A104T
VL: B1 VL with T24R, A25S, L55E, N58K, T61S
B3: Construct 13 (mAb422) with IgG1 YTE LALA heavy chain constant region (antibody, V domains shown)
VH: B1 VH with I51V, I58T, I103V, A104T
VL: B1 VL with T24R, A25S, L29V, K35Y, N58K, T61S
B4: Construct 31 (mAb443) (antibody, IgG4, V domains shown)
VH: B1 VH with I103V, A104T
VL: B1 VL with T24R, A25S, I33N, K35Y, V38L, N57S, T61S, S96A, T98Q, S99A
notes: VH/VL only
B5: Construct 38 (mAb471) (antibody, IgG4, V domains shown)
VH: B1 VH with I103V, A104T
VL: B1 VL with T24R, A25S, L55E, N58K, T61S
notes: VH/VL only

Columns and labels:
[1] = biological target: T1, hIL-4Rα on cells; assay: cell-based or functional assay
[2] = biological target: T2, human IL-4Rα; assay: KinExA
Protocol: Binding affinity (KD) of exemplary antibodies to human IL-4Rα was determined using the Kinetic Exclusion Assay (KinExA). Briefly, antibody and recombinant human IL-4Rα were equilibrated in solution. […] Samples were incubated for a time period ranging from 3.5 hours to 340 hours, to fully reach equilibrium. Once samples reached equilibrium, azlactone beads previously coated with recombinant human IL-4Rα were used to capture any free antibody from the equilibrated solution. […] The KinExA 4000 instrument was used to capture fluorescent signal and convert to a voltage signal that is directly proportional to the amount of free antibody in all the equilibrated samples, allowing for the determination of the apparent affinity of the antibody.

[3] = biological target: T2, human IL-4Rα; assay: SPR, Carterra LSA;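 further: antibodies captured on an anti-human Fc sensor chip, antigen injected at several concentrations, association and dissociation rates fitted with a 1:1 Langmuir model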
[4] = biological target: T3, cynomolgus monkey IL-4Rα; assay: SPR, Carterra LSA;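 further: antibodies captured on an anti-human Fc sensor chip, antigen injected at several concentrations, association and dissociation rates fitted with a 1:1 Langmuir model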
[5] = biological target: T1, hIL-4Rα on cells; assay: cell-based or functional assay; remark: listed apart in the source
[6] = biological target: T1, hIL-4Rα on cells; assay: FACS on HEK293 cells, competitor biotin-hIL-4;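 on Relative Blockade of IL-4 Binding IC50: HEK293 cells stably co-expressing hIL-13Rα and hIL-4Rα, stained for 1 h at 4 °C, read-out as mean fluorescence intensity by flow cytometry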
Protocol: (§1) Briefly, HEK293 previously transduced to stably express both hIL-13Rα and hIL-4Rα were cultured and harvested. Cells were seeded at 200,000 cells in 100 uL per well. Cells were washed and the supernatant discarded. […] The cells were stained in this mixture at 4° C. for 1 hour. […] Cells were incubated 4° C. for 1 hour, protected from light. Cells were then washed and the MFI of cells in each well were recorded by FACS using a BD FACSCanto II. Subsequent data were analyzed using GraphPad Prism.

[7] = biological target: T1, hIL-4Rα on cells; assay: FACS on HEK293 cells, competitor biotin-hIL-13;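 on Relative Blockade of IL-13 Binding IC50: stably transduced cells co-expressing both receptor chains, stained cold, with cell-bound signal read as mean fluorescence intensity by flow cytometry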
Protocol: as §1

[8] = biological target: T1, hIL-4Rα on cells; assay: cell-based or functional assay; remark: listed apart in the source
[9] = biological target: T1, hIL-4Rα on cells; assay: cell-based or functional assay; remark: listed apart in the source
[10] = biological target: T1, hIL-4Rα on cells; assay: FACS on HEK293 cells, competitor biotin-hIL-4; remark: listed apart in the source;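 on Relative Blockade of IL-4 Binding IC50: HEK293 cells stably co-expressing hIL-13Rα and hIL-4Rα, stained for 1 h at 4 °C, read-out as mean fluorescence intensity by flow cytometry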
Protocol: as §1
(§2) The values reflect absolute IC₅₀ measurements.

[11] = biological target: T1, hIL-4Rα on cells; assay: cell-based or functional assay; remark: listed apart in the source
[12] = biological target: T1, hIL-4Rα on cells; assay: FACS on HEK293 cells, competitor biotin-hIL-13; remark: listed apart in the source;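 on Relative Blockade of IL-13 Binding IC50: stably transduced cells co-expressing both receptor chains, stained cold, with cell-bound signal read as mean fluorescence intensity by flow cytometry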
Protocol: as §1, §2

[13] = biological target: T1, hIL-4Rα on cells; assay: cell-based or functional assay; remark: listed apart in the source

Row | Binder | Relative Inhibition of IL-4 induced TF-1 Proliferation IC50 [1] | Relative Inhibition of IL-13 induced TF-1 Proliferation IC50 [1] | KD Relative to Dupilumab [2] | Kd [2] | KD Relative to Dupilumab [3] | Kd [3] | KD Relative to Dupilumab [4] | Kd [4] | Relative Inhibition of IL-4 induced pSTAT6 IC50 [5] | Relative Inhibition of IL-13 induced pSTAT6 IC50 [5] | Relative Blockade of IL-4 Binding IC50 [6] | Relative Blockade of IL-13 Binding IC50 [7] | Relative Inhibition of IL-4 induced TARC IC50 [8] | Relative Inhibition of IL-13 induced TARC IC50 [8] | Inhibition of IL-4 induced pSTAT6 IC50 [9] | Inhibition of IL-13 induced pSTAT6 IC50 [9] | IC50 [10] | Inhibition of IL-4 induced TARC IC50 [11] | Inhibition of IL-13 induced TARC IC50 [11] | IC50 [12] | further results
1 | B1 | 1.03 relative to dupilumab | 0.693 relative to dupilumab | 0.105 | 0.118 pM | 0.79 | 8.91 pM | 0.11 | 66900 pM | 0.629 relative to dupilumab | 0.586 relative to dupilumab | 0.973 relative to dupilumab | 0.825 relative to dupilumab | 0.445 relative to dupilumab | 0.594 relative to dupilumab | – | – | – | – | – | – | –
2 | B2 | – | – | – | – | – | – | – | – | – | – | – | – | – | – | 0.248 nM | 1.05 nM | 271 pM | 259 pM | 527 pM | 226 pM | Inhibition of IL-4 induced TF-1 Proliferation IC50 [13]: 52 pM; Inhibition of IL-13 induced TF-1 Proliferation IC50 [13]: 161 pM
3 | B3 | – | – | – | – | – | – | – | – | – | – | – | – | – | – | 0.185 nM | 0.612 nM | 238 pM | 179 pM | 261 pM | 235 pM | Inhibition of IL-4 induced TF-1 Proliferation IC50 [13]: 38 pM; Inhibition of IL-13 induced TF-1 Proliferation IC50 [13]: 119 pM
4 | B4 | 1.25 relative to dupilumab | 1.24 relative to dupilumab | 0.252 | 0.282 pM | 0.73 | 8.29 pM | 0.67 | 421000 pM | 1.23 relative to dupilumab | 1.61 relative to dupilumab | 1.01 relative to dupilumab | 0.964 relative to dupilumab | 1.37 relative to dupilumab | 0.703 relative to dupilumab | – | – | – | – | – | – | –
5 | B5 | 1.04 relative to dupilumab | 1.2 relative to dupilumab | 0.376 | 0.421 pM | 0.52 | 5.89 pM | 0.4 | 249000 pM | 0.723 relative to dupilumab | 1.56 relative to dupilumab | 0.981 relative to dupilumab | 0.996 relative to dupilumab | 1.17 relative to dupilumab | 1.63 relative to dupilumab | – | – | – | – | – | – | –
